Substrate in this series: N[C@H]1C(O)O[C@H](CO)[C@@H](O[C@@H]2O[C@H](CO)[C@H](O)[C@H](O)[C@H]2O)[C@@H]1O
The series can be described thus: Sialyltransferase activity of ST6Gal 1 assayed with CD73. The class given is biochemical, human. To be noted: other: acceptor varied, CMP-NeuAc fixed at 0.2 mM; pH 7.5. The source says: The GDP-Fucose, UDP-Glucose, CMP-NeuAc, CMP, UDP and GDP used in the following experiments were obtained from Sigma-Aldrich (St Louis, Mo.). The recombinant human Fut7, ST6Gal1, CD73, CD39L3, non-specific alkaline phosphatase TNAP, recombinant Clostridium Difficile toxin B (TcdB) containing the glycosyltransferase domain and Malachite Green Phosphate Detection Kit were obtained from R&D Systems (Minneapolis, Minn.). The 3′-Sialyl-N-acetyllactosamine was obtained from V-LABS, Inc (Convington, La.). Unless otherwise specified, each glycosyltransferase reaction was performed in 50 μL of a buffer of 25 mM Tris, 150 mM NaCl, 5 mM MgCl2 and 5 mM MnCl2, at pH 7.5 in a 96-well plate at room temperature for 20 minutes. […] The plate was then read at 620 nm with a multi-well plate reader.
Sialic acid is negatively charged under normal pH conditions, making sialyltransferases more difficult to assay than other glycosyltransferases. […] The results are shown in FIG. 7, and the specific activities against lactosamine and lactose were determined to be 458 and 41 pmol/min/μg respectively, confirming that the enzyme strongly favors lactosamine structure. The apparent Km and Vmax were determined for one substrate while fixing the other by fitting the data to KaleidaGraph 4 program.

B1: ST6Gal 1 (Homo sapiens) (protein)
chain: MIHTNLKKKFSCCVLVFLLFAVICVWKEKKKGSYYDSFKLQTKEFQVLKSLGKLAMGSDSQSVSSSSTQDPHRGRQTLGSLRGLAKAKPEASFQVWNKDSSSKNLIPRLQKIWKNYLSMNKYKVSYKGPGPGIKFSAEALRCHLRDHVNVSMVEVTDFPFNTSEWEGYLPKESIRTKAGPWGRCAVVSSAGSLKSSQLGREIDDHDAVLRFNGAPTANFQQDVGTKTTIRLMNSQLVTTEKRFLKDSLYNEGILIVWDPSVYHSDIPKWYQNPDYNFFNNYKTYRKLHPNQPFYILKPQMPWELWDILQEISPEEIQPNPPSSGMLGIIIMMTLCDQVDIYEFLPSKRKTDVCYYYQKFFDSACTMGAYHPLLYEKNLVKHLNQGTDEDIYLLGKATLPGFRTIHC
notes: purchased R&D Systems
What is called Km is the concentration of substrate that gives half-maximal velocity. With B1, the Michaelis constant (Km) came to 1800 ± 400 µM and the Vmax amounted to 496 ± 38 pmol/min/µg.

(Values after patent US9410182B2, “Phosphatase coupled glycosyltransferase assay” (Bio-Techne Corporation, priority 2010, dated 2016).)
